Measured values as given in patent US20170349669A1 (Hoffmann-La Roche, published 2017).
Numbering of substitutions follows the chain as printed.

T1: human Ang-2-RBD-Fc (human, UniProt O15123 275-496, limits assumed)
T1 construct: domain: RBD; Used as analyte in solution; The KD is called apparent; not shown: Fc part
T1 sequence (looked up): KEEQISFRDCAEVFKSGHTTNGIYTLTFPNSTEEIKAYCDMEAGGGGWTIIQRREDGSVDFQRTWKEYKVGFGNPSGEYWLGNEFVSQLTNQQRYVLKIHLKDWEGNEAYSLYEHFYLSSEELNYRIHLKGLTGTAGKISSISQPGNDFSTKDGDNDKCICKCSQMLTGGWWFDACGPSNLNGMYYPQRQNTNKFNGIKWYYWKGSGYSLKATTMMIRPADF

T2: TWEAK (human, UniProt O43508 94-249, limits assumed)
T2 construct: The assay paragraph says only 'TWEAK'; also called human TWEAK; TNF-related weak inducer of apoptosis
T2 sequence (looked up): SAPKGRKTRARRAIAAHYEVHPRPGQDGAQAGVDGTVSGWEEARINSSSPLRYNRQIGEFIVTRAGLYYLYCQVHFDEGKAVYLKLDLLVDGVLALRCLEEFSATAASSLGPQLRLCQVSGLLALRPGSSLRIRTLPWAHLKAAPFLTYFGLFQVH

T3: human VEGFA-121-His (human, UniProt P15692-9 27-147)
T3 construct: Captured on an anti-His antibody surface; P15692 is the canonical VEGF-A entry, and the 121 isoform is one of its splice forms; also called VEFGA-121-His; not shown: His tag
T3 sequence (looked up): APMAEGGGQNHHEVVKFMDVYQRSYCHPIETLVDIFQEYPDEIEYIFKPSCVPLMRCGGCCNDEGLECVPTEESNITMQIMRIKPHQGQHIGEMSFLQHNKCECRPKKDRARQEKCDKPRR

T4: human IL17 (human, UniProt Q16552 24-155)
T4 construct: Used as analyte in solution; also called IL17-A
T4 sequence (looked up): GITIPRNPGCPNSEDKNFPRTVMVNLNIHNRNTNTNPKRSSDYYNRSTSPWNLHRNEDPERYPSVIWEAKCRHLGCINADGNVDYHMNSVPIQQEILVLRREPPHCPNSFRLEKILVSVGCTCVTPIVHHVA

B1: Ang2VEGF_280 (bispecific antibody, human IgG1, kappa)
heavy 1: not shown
light 1: EVQLVESGGGLVQPGGSLRLSCAASGYTFTNYGMNWVRQAPGKGLEWVGWINTYTGEPTYAADFKRRFTFSLDTSKSTAYLQMNSLRAEDTAVYYCAKYPHYYGSSHWYFDVWGQGTLVTVSSASTKGPSVFPLAPSSKSTSGGTAALGCLVKDYFPEPVTVSWNSGALTSGVHTFPAVLQSSGLYSLSSVVTVPSSSLGTQTYICNVNHKPSNTKVDKKVEPKSC
heavy 2: not shown
light 2: QPGLTQPPSVSVAPGQTARITCGGNNIGSKSVHWYQQKPGQAPVLVVYDDSDRPSGIPERFSGSNSGNTATLTISRVEAGDEADYYCQVWDSSSDHYVFGTGTKVTVLRTVAAPSVFIFPPSDKKLKSGTASVVCLLNNFYPREAKVQWKVDNALQSGNSQESVTEQDSKDSTYSLSSTLTLSKADYEKHKVYACEVTHQGLSSPVTKSFNRGEC
notes: Bivalent CrossMAb-Fab with four different chains; also called Ang2VEGF-0280
B2: Ang2VEGF_467 (bispecific antibody, human IgG1, kappa)
heavy 1: not shown
light 1: B1 light 1
heavy 2: not shown
light 2: B1 light 2
notes: Wild type CH3 domains, no knob-into-hole
B3: Ang2VEGF_468 (bispecific antibody, human IgG1, kappa)
heavy 1: not shown
light 1: B1 light 1
heavy 2: not shown
light 2: B1 light 2
notes: as for B2
B4: TweakIL17_101 (bispecific antibody, human IgG4 S228P, kappa)
heavy 1: DIQMTQSPSSVSASVGDRVTITCQASQNIYSNLAWYQQKPGKAPKLLIYTASYLASGVPSRFSGSGSGTDYTLTISSLQPEDFATYYCQTAYYNSRPDTVAFGGGTKVEIKRTVAAPSVFIFPPSDEQLKSGTASVVCLLNNFYPREAKVQWKVDNALQSGNSQESVTEQDSKDSTYSLSSTLTLSKADYEKHKVYACEVTHQGLSSPVTKSFNRGECPPCPPCPAPEFEGGPSVFLFPPKPKDTLMISRTPEVTCVVVDVSQEDPEVQFNWYVDGVEVHNAKTKPREEQFNSTYRVVSVLTVLHQDWLNGKEYKCKVSNKGLPSSIEKTISKAKGQPREPQVYTLPPCQEEMTKNQVSLWCLVKGFYPSDIAVEWESNGQPENNYKTTPPVLDSDGSFFLYSRLTVDKSRWQEGNVFSCSVMHEALHNHYTQKSLSLSL
light 1: QVQLVQSGAEVKKPGSSVKVSCKASGFDFSTYYMSWVRQAPGQGLEWMGTVYVRQGTTYYASWLNGRVTITADESTSTAYMELSSLRSEDTAVYYCARGGYNYDDAFVIWGQGTLVTVSSASTKGPSVFPLAPCSRSTSESTAALGCLVKDYFPEPVTVSWNSGALTSGVHTFPAVLQSSGLYSLSSVVTVPSSSLGTKTYTCNVDHKPSNTKVDKRVESKYG
heavy 2: EVQLVESGGGLVQPGGSLRLSCAASGFSLDSYGVHWVRQATGKGLEWVSVIWSDGTTTYNSALKSRFTISRENAKNSLYLQMNSLRAGDTAVYYCARDTHYRLYYYAMDYWGQGTTVTVSSASTKGPSVFPLAPCSRSTSESTAALGCLVKDYFPEPVTVSWNSGALTSGVHTFPAVLQSSGLYSLSSVVTVPSSSLGTKTYTCNVDHKPSNTKVDKRVESKYGPPCPPCPAPEFEGGPSVFLFPPKPKDTLMISRTPEVTCVVVDVSQEDPEVQFNWYVDGVEVHNAKTKPREEQFNSTYRVVSVLTVLHQDWLNGKEYKCKVSNKGLPSSIEKTISKAKGQPREPQVCTLPPSQEEMTKNQVSLSCAVKGFYPSDIAVEWESNGQPENNYKTTPPVLDSDGSFFLVSRLTVDKSRWQEGNVFSCSVMHEALHNHYTQKSLSLSL
light 2: DIVMTQSPLSLPVTPGEPASISCRSSQSLVHSNGDTYFHWYLQKPGQSPQLLIYKVSNRFSGVPDRFSGSGSGTDFTLKISRVEAEDVGVYYCSQTTHAPFTFGQGTKLEIKRTVAAPSVFIFPPSDEQLKSGTASVVCLLNNFYPREAKVQWKVDNALQSGNSQESVTEQDSKDSTYSLSSTLTLSKADYEKHKVYACEVTHQGLSSPVTKSFNRGEC
notes: also called TweakIL17_101 (wt); TweakIL17_0101
B5: TweakIL17_0128 (bispecific antibody, human IgG4 S228P, kappa)
heavy 1: B4 heavy 1 with Q38E, Q128E
light 1: B4 light 1 with Q39K
heavy 2: B4 heavy 2 with Q39E, K151E, K217E
light 2: B4 light 2 with Q43K, E128K, Q129K
notes: also called TweakIL17_128
B6: TweakIL17_103 (bispecific antibody, human IgG4 S228P, kappa)
heavy 1: B4 heavy 1 with Q128E
light 1: B4 light 1
heavy 2: B4 heavy 2 with K151E, K217E
light 2: B4 light 2 with E128K, Q129K
notes: also called TweakIL17_0103
B7: Ang2VEGF_290 (bispecific antibody, human IgG1, kappa, lambda)
heavy 1: not shown
light 1: B1 light 1
heavy 2: not shown
light 2: QPGLTQPPSVSVAPGQTARITCGGNNIGSKSVHWYQQKPGQAPVLVVYDDSDRPSGIPERFSGSNSGNTATLTISRVEAGDEADYYCQVWDSSSDHYVFGTGTKVTVLGQPKAAPSVTLFPPSSEELQANKATLVCLISDFYPGAVTVAWKADSSPVKAGVETTTPSKQSNNKYAASSYLSLTPEQWKSHRSYSCQVTHEGSTVEKTVAPTECS
notes: The Ang2 arm has a lambda light chain; also called Ang2VEGF-0290 (wt); Ang2VEGF-0290
B8: Ang2VEGF_279 (bispecific antibody, human IgG1, kappa, lambda)
heavy 1: not shown
light 1: B1 light 1
heavy 2: not shown
light 2: B7 light 2 with E125K, E126K
notes: The Ang2 arm has a lambda light chain; also called Ang2VEGF-0279

Molecular target: T1, human Ang-2-RBD-Fc
Test: SPR Biacore T200, apparent KD, antibody captured via anti-human F(ab')2, Ang2-RBD-Fc as analyte
Description: (§1) Binding of indicated antibodies to human Ang-2-RBD-Fc was investigated by surface plasmon resonance using a BIACORE® T200 instrument (GE Healthcare). Around 8000 (RU) of goat anti human F(ab′)₂ (10 μg/ml anti human F(ab)′₂; Order Code: 28958325; GE Healthcare Bio-Sciences AB, Sweden) were coupled on a Series S CM5 chip (GE Healthcare BR-1005-30) at pH 5.0 by using an amine coupling kit supplied by the GE Healthcare. HBS-N (10 mM HEPES, 150 mM NaCl pH 7.4, GE Healthcare) was used as running buffer during the immobilization procedure. For the following kinetic characterization, sample and running buffer was PBS-T (10 mM phosphate buffered saline including 0.05% Tween20) at pH 7.4. The flow cell was set to 25° C.—and the sample block set to 12° C.—and primed with running buffer twice prior to kinetic characterization.
(§2) The bispecific antibody was captured by injecting a 5 nM solution for 25 sec at a flow of 5 μl/min. The association was measured by injection of human Ang2-RBD-Fc in various concentrations in solution for 120 sec at a flow of 30 μl/min starting with 100 nM in 1:3 serial dilutions. The dissociation phase was monitored for up to 180 sec and triggered by switching from the sample solution to running buffer. The surface was regenerated by 60 sec washing with a Glycine pH 2.1 solution at a flow rate of 30 μl/min. Bulk refractive index differences were corrected by subtracting the response obtained from a goat anti human F(ab′)₂ surface. Blank injections are also subtracted (=double referencing). For calculation of apparent KD the Langmuir 1:1 model was used.

Binder	Kd [nM]
B1	3
B2	0.5
B3	0.5

Molecular target: T2, TWEAK
Test: SPR Biacore T200 25 C, apparent KD, TWEAK amine-coupled on C1 chip, antibody as analyte

Binder	Kd [nM]
B4	< 0.1
B5	< 0.1
B6	< 0.1

Molecular target: T3, human VEGFA-121-His
Test: SPR Biacore T200, VEGFA-121-His captured via anti-His, antibody as analyte, 1:1 Langmuir
Description: as §1, with “VEGFA-121” for “Ang-2-RBD-Fc”, “10000” for “8000”, “of” for “of goat”, “His antibody (1” for “human F(ab′)₂ (10”, “His antibody;” for “human F(ab)′₂;”, “28995056;” for “28958325;”
(§3) VEFGA-121-His was captured by injecting a 0.5 μg/ml solution for 30 sec at a flow of 5 μl/min. The association was measured by injection of the indicated antibodies in various concentrations in solution for 180 sec at a flow of 30 μl/min starting with 1000 nM in 1:3 serial dilutions. The dissociation phase was monitored for up to 600 sec and triggered by switching from the sample solution to running buffer. The surface was regenerated by 60 sec washing with a Glycine pH 1.5 solution at a flow rate of 30 μl/min. Bulk refractive index differences were corrected by subtracting the response obtained from a anti His antibody surface. Blank injections are also subtracted (=double referencing). For calculation of KD and other kinetic parameters the Langmuir 1:1 model was used.

Binder	Kd [nM]
B1	7
B2	17
B3	22

Molecular target: T3, human VEGFA-121-His
Test: as above
Remark: another data set of the same source
Description: as §1, with “VEGFA-121” for “Ang-2-RBD-Fc”, “10000” for “8000”, “of” for “of goat”, “His antibody (1” for “human F(ab′)₂ (10”, “His antibody;” for “human F(ab)′₂;”, “28995056;” for “28958325;”
as §3

Binder	Kd [nM]
B1	7
B7	8
B8	6

Molecular target: T4, human IL17
Test: SPR Biacore T200 25 C, antibody captured via anti-human F(ab')2, human IL17 as analyte, 1:1 Langmuir
Description: Around 6000 resonance units (RU) of the capturing system (15 μg/ml goat anti human F(ab′)2; Order Code: 28958325; GE Healthcare Bio-Sciences AB, Schweden) were coupled on a CM5 chip at pH 5.0 by using an amine coupling kit supplied by the GE Healthcare. The sample and system buffer was PBS-T (10 mM phosphate buffered saline including 0.05% Tween 20) pH 7.4. The bispecific antibody was captured by injecting a 50 nM solution for 90 sec at a flow of 10 μl/min. Association was measured by injection human IL17 in various concentrations in solution for 3 min at a flow of 30 μl/min starting with 50 nM in 1:1 serial dilutions. The dissociation phase was monitored for up to 10 min and triggered by switching from the sample solution to running buffer. The surface was regenerated twice by 60 sec wash with a 10 mM glycine pH 2.1 solution at a flow rate of 30 μl/min. Bulk refractive index differences were corrected by subtracting the response obtained from a goat anti human F(ab′)2 surface. Blank injections are also subtracted (=double referencing). For calculation of apparent KD and other kinetic parameters, the Langmuir 1:1 model was used.

Binder	Kd [nM]
B4	0.1
B5	0.1
B6	0.1

Molecular target: T1, human Ang-2-RBD-Fc
Test: SPR Biacore T200, apparent KD, antibody captured via anti-human F(ab')2, Ang2-RBD-Fc as analyte
Remark: another data set of the same source
Description: as §1, §2

Binder	Kd [nM]
B1	3
B7	3
B8	5
